Data on one substance can be found in article PMC8498194.

The target of this experiment is hnRNP A1B (heterogenous ribonucleoprotein A1B), mouse (mouse (endogenous in C57BL6/N tissues)). Nature of the experiment: SDS-PAGE immunoblot of tissue lysates (SDS-resistant band); 15 ug of mouse tissue lysate (2 month-old mice, CNS and peripheral tissues) on 12.5% SDS-PAGE, blotted with anti-hnRNP A1B (custom) or anti-hnRNP A1 (4B10). (In western blotting, separated proteins are transferred to a membrane and probed.)

Broadly, the stoichiometry N is the number of molecules, sites or subunits per partner or assembly. “hnRNP A1B (heterogenous ribonucleoprotein A1B), mouse (natural protein)” gave a stoichiometry N of 2.
